Experimental data taken from article PMC3776556, “Crystal structures of the CPAP/STIL complex reveal its role in centriole assembly and human microcephaly” (eLife, 2013).

Tests used:
[1] = biological target: T1, Danio rerio CPAP^937–1124 TCP domain, WT (Danio rerio, UniProt E7FCY1 937-1124); assay: ITC; STIL peptide in syringe titrated into CPAP TCP domain in cell; 50 mM HEPES pH 7.5, 100 mM NaCl, 25°C; single set of binding sites model, N as a variable; CPAP typically 40 μM, STIL typically 700 μM; conditions: both partners purified
T1 construct: remnant of the cloning and protease cleavage sites at the N-terminus; also called TCP domain of D. rerio CPAP; G-box; source: E. coli BL21 (DE3) Rosetta, purified (NiNTA, proteolytic tag cleavage, optionally size exclusion, ion exchange); not shown: His tag, N-terminal, cleaved
T1 sequence: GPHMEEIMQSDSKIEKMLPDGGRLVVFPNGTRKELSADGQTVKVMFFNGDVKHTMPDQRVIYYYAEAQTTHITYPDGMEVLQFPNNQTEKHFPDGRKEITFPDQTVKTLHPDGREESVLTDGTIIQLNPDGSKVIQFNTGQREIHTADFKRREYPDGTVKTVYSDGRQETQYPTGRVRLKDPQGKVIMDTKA

[2] = SEC-MALS / dynamic light scattering of CPAP TCP domain; format: physicochemical

B1: Danio rerio STIL^411–428 (peptide)
chain: GEDEDLSPRPSPNPHPVSQENLYFQ
notes: remnant of the cloning and protease cleavage sites at the N-terminus; remnant of the cloning and protease cleavage sites at the C-terminus; expression and purification are told for STIL^404–448; the same paragraph gives the extra residues of this construct; also called N-terminal region of CR2 peptide; source: E. coli C41 BL21 (DE3), purified (NiNTA, proteolytic cleavage of the His-lipoyl …)
Kd [1]: 4 µM | dH [1]: -11.3 kcal/mol | stoichiometry N [1]: 0.98

B2: Danio rerio STIL^429–448 (peptide)
chain: GQTKRVHPLVPELSMVLDGSFEFGENLYFQ
notes: remnant of the cloning and protease cleavage sites at the N-terminus; STIL, Danio rerio, residues 429-448; remnant of the cloning and protease cleavage sites at the C-terminus; expression and purification are told for STIL^404–448; also called C-terminal region of CR2 peptide; source: E. coli C41 BL21 (DE3), purified (NiNTA, proteolytic cleavage of the His-lipoyl domains, ion exchange); not …
Kd [1]: 540 µM | dH [1]: -6.3 kcal/mol | stoichiometry N [1]: 0.97

B3: CPAP^937–1124: TCP domain of Danio rerio CPAP, residues 937–1124, recombinant, GPHM at N-terminus (protein)
chain: GPHMEEIMQSDSKIEKMLPDGGRLVVFPNGTRKELSADGQTVKVMFFNGDVKHTMPDQRVIYYYAEAQTTHITYPDGMEVLQFPNNQTEKHFPDGRKEITFPDQTVKTLHPDGREESVLTDGTIIQLNPDGSKVIQFNTGQREIHTADFKRREYPDGTVKTVYSDGRQETQYPTGRVRLKDPQGKVIMDTKA
modifications: left off: His tag, N-terminal, cleaved
notes: TCP domain of Danio rerio CPAP, residues 937–1124, recombinant, GPHM at N-terminus
oligomeric state in solution ([2]; SAXS and SEC-MALS): predominantly monomeric in solution | molar mass (averaged across central 50% of peak) ([2]; SEC-MALS, injected at approximately 460 μM, 25 mM bis Tris pH 7.2, 100 mM NaCl, theoretical monomer 22 kDa): 23 kDa | Rh (hydrodynamic radius) ([2]; dynamic light scattering with SEC, intermediate concentration, 25 mM bis Tris pH 7.2, 100 mM NaCl): 2.9 ± 0.15 nm
